{"source": "patent US20020086018A1", "about": "(published 2002)", "binders": {"B1": {"name": "Soluble murine APRIL-Flag protein (FLAG-tagged soluble mouse G70) (ligand)", "chain": "KHKKKHSVLHLVPVNITSKADSDVTEVMWQPVLRRGRGLEAQGDIVRVWDTGIYLLYSQVLFHDVTFTMGQVVSREGQGRRETLFRCIRSMPSDPDRAYNSCYSAGVFHLHQGDIITVKIPRANAKLSLSPHGTFLGFV"}}, "target": "T1, hTACI-Fc (soluble human TACI-Fc receptor fusion protein) (human, UniProt O14836 1-165)", "T1 construct": "also called shTACI-Fc; sTACI", "T1 sequence": "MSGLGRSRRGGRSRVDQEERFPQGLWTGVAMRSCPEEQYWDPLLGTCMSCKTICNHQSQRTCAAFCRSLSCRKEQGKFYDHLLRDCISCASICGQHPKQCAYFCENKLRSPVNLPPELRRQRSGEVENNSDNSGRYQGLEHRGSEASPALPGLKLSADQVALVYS", "test": "BIAcore 2000; TACI-Fc immobilised on CM5, Flag-APRIL as analyte, 1:1 Langmuir model"}
{"binder": "B1", "values": [{"measurement": "Kd", "result": 1.48, "unit": "nM"}]}
